From US20100248359A1 (Chugai, published 2010)
Positions count from the first letter of the chain named. Names may count otherwise. Values belong to the binder of their own block, whether it stands above or below them.

Legend:
full-length human GPC3 [1] = target: T1, full-length human GPC3 (human, UniProt P51654 25-554); assay: flow cytometry, antibody at 5 µg/mL, HepG2 cells
T1 construct: On CHO (DXB11) or SK-HEP-1 (SK-03) transfectants; also used here for the GPC3 on the hepatoma lines HepG2 and HuH-7; also called human glypican 3
T1 sequence (P51654 25-554 limits assumed): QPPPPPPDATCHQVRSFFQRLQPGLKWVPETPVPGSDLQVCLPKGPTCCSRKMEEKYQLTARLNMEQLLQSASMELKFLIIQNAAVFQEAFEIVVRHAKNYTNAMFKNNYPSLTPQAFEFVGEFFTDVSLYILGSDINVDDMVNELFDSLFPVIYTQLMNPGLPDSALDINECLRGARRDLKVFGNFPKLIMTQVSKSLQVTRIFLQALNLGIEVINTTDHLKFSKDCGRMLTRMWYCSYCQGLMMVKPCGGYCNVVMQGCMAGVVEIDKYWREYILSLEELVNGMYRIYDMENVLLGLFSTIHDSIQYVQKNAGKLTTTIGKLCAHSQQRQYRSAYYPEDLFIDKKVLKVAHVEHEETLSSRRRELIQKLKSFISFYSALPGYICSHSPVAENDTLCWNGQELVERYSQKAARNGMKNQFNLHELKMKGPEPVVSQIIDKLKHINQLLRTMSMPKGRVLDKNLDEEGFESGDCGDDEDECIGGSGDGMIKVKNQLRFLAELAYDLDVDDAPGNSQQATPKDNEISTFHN

full-length human GPC3 [2] = target: T1, full-length human GPC3; assay: flow cytometry, antibody at 5 µg/mL, CHO cells expressing human GPC3 (column CHO/human GPC3)
[3] = target: T2, soluble form of GPC3 core protein (human, UniProt P51654 25-563); assay: competitive ELISA on coated soluble GPC3 core protein; labelled competitor biotin-M11F1;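 note: Biotin-labelled antibody added as 10 µL at 10 µg/mL for 1 h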
T2 construct: not shown: His tag added to the C-terminus

[4] = target: T2, soluble form of GPC3 core protein; assay: competitive ELISA on coated soluble GPC3 core protein; labelled competitor biotin-M6B1;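 note: Biotin-labelled antibody added as 10 µL at 10 µg/mL for 1 h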
full-length human GPC3 [5] = target: T1, full-length human GPC3; assay: flow cytometry, antibody at 5 µg/mL, HuH-7 cells
full-length human GPC3 [6] = target: T1, full-length human GPC3; assay: BIACORE; the form of GPC3 used is not given
[7] = target: T2, soluble form of GPC3 core protein; assay: competitive ELISA on coated soluble GPC3 core protein; labelled competitor biotin-L9G11;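 note: Biotin-labelled antibody added as 10 µL at 10 µg/mL for 1 h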
[8] = target: T2, soluble form of GPC3 core protein; assay: competitive ELISA on coated soluble GPC3 core protein; labelled competitor biotin-M5B9;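 note: Biotin-labelled antibody added as 10 µL at 10 µg/mL for 1 h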
[9] = target: T2, soluble form of GPC3 core protein; assay: competitive ELISA on coated soluble GPC3 core protein; labelled competitor biotin-M18D4;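 note: Biotin-labelled antibody added as 10 µL at 10 µg/mL for 1 h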
[10] = target: T2, soluble form of GPC3 core protein; assay: competitive ELISA on coated soluble GPC3 core protein; labelled competitor biotin-M10D2;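 note: Biotin-labelled antibody added as 10 µL at 10 µg/mL for 1 h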
[11] = target: T2, soluble form of GPC3 core protein; assay: competitive ELISA on coated soluble GPC3 core protein; labelled competitor biotin-M1E7;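 note: Biotin-labelled antibody added as 10 µL at 10 µg/mL for 1 h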
[12] = target: T2, soluble form of GPC3 core protein; assay: ELISA on plate coated with soluble GPC3 core protein
[13] = target: T2, soluble form of GPC3 core protein; assay: competitive ELISA on coated soluble GPC3 core protein; labelled competitor biotin-M3C11;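 note: Biotin-labelled antibody added as 10 µL at 10 µg/mL for 1 h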
[14] = target: T3, C-terminal fragment of 30 kDa of the soluble form of GPC3 core protein (human, UniProt P51654 375-563); assay: Western blotting of soluble GPC3 core protein after reducing SDS-PAGE
T3 construct: the shorter limit is written; also called C-terminal side; band of about 30 kDa; not shown: His tag at the C-terminus
T3 chain: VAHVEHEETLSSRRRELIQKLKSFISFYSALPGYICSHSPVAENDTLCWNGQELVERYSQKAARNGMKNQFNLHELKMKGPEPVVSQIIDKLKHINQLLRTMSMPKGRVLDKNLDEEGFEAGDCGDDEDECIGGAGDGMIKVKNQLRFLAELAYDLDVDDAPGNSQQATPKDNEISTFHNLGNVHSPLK

[15] = target: T4, secreted form of GPC3 in the culture supernatant of HepG2 (human, UniProt P51654 25-358, limits assumed); assay: immunoprecipitation of the culture supernatant of HepG2, detection of secreted GPC3
T4 construct: also called secretory GPC3; secreted form of GPC3 of 40 kDa
T4 sequence (P51654 25-358 limits assumed): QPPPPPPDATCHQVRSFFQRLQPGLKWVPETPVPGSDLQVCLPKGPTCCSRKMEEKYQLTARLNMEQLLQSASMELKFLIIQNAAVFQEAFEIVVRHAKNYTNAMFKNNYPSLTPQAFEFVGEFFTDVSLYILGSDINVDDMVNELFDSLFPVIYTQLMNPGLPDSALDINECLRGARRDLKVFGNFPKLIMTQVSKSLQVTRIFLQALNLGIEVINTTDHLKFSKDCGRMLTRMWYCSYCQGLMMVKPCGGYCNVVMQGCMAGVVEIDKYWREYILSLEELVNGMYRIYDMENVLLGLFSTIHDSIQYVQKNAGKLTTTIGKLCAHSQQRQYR

[16] = target: T5, GC-3 (GST fusion of GPC3 Ala524 to Lys563) (human, UniProt P51654 524-563); assay: Western blotting of GST-fusion proteins, reducing SDS-PAGE
T5 construct: not shown: GST as encoded by pGEX-4T-3 (Amersham), N-terminal to the GPC3 peptide
T5 chain: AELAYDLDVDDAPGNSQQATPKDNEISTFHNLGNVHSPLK

[17] = target: T6, GC-1 (GST fusion of GPC3 Ser495 to Lys563) (human, UniProt P51654 495-563); assay: as above
T6 construct: Made in E. coli DH5alpha; not shown: GST as encoded by pGEX-4T-3 (Amersham), N-terminal to the GPC3 peptide
T6 sequence: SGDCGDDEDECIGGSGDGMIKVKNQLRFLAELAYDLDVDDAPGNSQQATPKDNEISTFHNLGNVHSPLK

[18] = target: T7, GC-2 (GST fusion of GPC3 Gly510 to Lys563) (human, UniProt P51654 510-563); assay: as above
T7 construct: not shown: GST as encoded by pGEX-4T-3 (Amersham), N-terminal to the GPC3 peptide
T7 sequence: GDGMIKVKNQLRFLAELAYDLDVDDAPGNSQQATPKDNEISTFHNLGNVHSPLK

[19] = target: T2, soluble form of GPC3 core protein; assay: ELISA on plate coated with soluble GPC3 core protein; antibody from COS7 culture supernatant
[20] = target: T2, soluble form of GPC3 core protein; assay: ELISA on plate coated with soluble GPC3 core protein; antibody from COS7 culture supernatant [lower right panel]
[21] = target: T2, soluble form of GPC3 core protein; assay: ELISA on plate coated with soluble GPC3 core protein; antibody from COS7 culture supernatant [middle right panel]

B1: L9G11 (antibody, V domains shown)
VH: QVQLQQPGAELVKPGASVKLSCKASGYTFTSYWMHWVKQRPGQGLEWIGTIDPSDSETHYNLQFKDTATLTVDKSSSTAYMQLSSLTSEDSAVYYCIRGAFYSSYSYWAWFAYWGQGTLVTVSA
VL: DIVLTQSPTSLAVSLGQSVTISCRASESVEYYGTSLMQWYQQKPGQPPKLLIYGASNVESGVPARFSGSGSGTDFSLNIHPVEEDDIAMYFCQQSRKVPYTFGSGTKLEIK
notes: Mouse monoclonal from hybridoma
FACS X-mode value of the histogram (full-length human GPC3 [1]): 26
FACS X-mode value of the histogram (full-length human GPC3 [2]): 29
Inhibition of the binding of indicated biotin-Mab to sGPC3 core (%) [3]: 6%
Inhibition of the binding of indicated biotin-Mab to sGPC3 core (%) [4]: 10.1%
FACS X-mode value of the histogram (full-length human GPC3 [5]): 4
Kd (full-length human GPC3 [6]): 10.7 nM
koff (full-length human GPC3 [6]): 0.0014 s⁻¹
kon (full-length human GPC3 [6]): 130000 M⁻¹ s⁻¹
Inhibition of the binding of indicated biotin-Mab to sGPC3 core (%) [7]: 92.2%
Inhibition of the binding of indicated biotin-Mab to sGPC3 core (%) [8]: 6.4%
Inhibition of the binding of indicated biotin-Mab to sGPC3 core (%) [9]: 15.7%
Inhibition of the binding of indicated biotin-Mab to sGPC3 core (%) [10]: 1.2%
Inhibition of the binding of indicated biotin-Mab to sGPC3 core (%) [11]: -4.8%
EC50 [12]: 0.62 nM
Inhibition of the binding of indicated biotin-Mab to sGPC3 core (%) [13]: 2.1%
binding result [14]: no binding

B2: M11F1 (antibody, V domains shown)
VH: QVTLKESGPGILQPSQTLSLTCSFSGFSLSIYGMGVGWIRQPSGKGLEWLANIWWNDDKYYNSALKSRLTISKDTSNNQVFLKISSVDTADTATYYCAQIGYFYFDYWGQGTTLTVSS
VL: DVVMTQTPLSLPVSLGDQASISCRSSQSLVHSNGNTYLHWYLQKPGQSPKLLIYKVSNRFSGVPDRFSGSGSGTDFTLKISRVEAEDLGVYFCSQSTHVPWTFGGGTKLEIK
notes: as for B1
FACS X-mode value of the histogram (full-length human GPC3 [1]): 4
FACS X-mode value of the histogram (full-length human GPC3 [2]): 9
Inhibition of the binding of indicated biotin-Mab to sGPC3 core (%) [3]: 81.8%
Inhibition of the binding of indicated biotin-Mab to sGPC3 core (%) [4]: 5.6%
FACS X-mode value of the histogram (full-length human GPC3 [5]): 2
binding result [15]: no binding
Kd (full-length human GPC3 [6]): 0.2 nM
koff (full-length human GPC3 [6]): 3.5e-05 s⁻¹
kon (full-length human GPC3 [6]): 140000 M⁻¹ s⁻¹
binding result [16]: binds
Inhibition of the binding of indicated biotin-Mab to sGPC3 core (%) [7]: 20.9%
Inhibition of the binding of indicated biotin-Mab to sGPC3 core (%) [8]: 5.4%
Inhibition of the binding of indicated biotin-Mab to sGPC3 core (%) [9]: -1.5%
Inhibition of the binding of indicated biotin-Mab to sGPC3 core (%) [10]: 24.6%
Inhibition of the binding of indicated biotin-Mab to sGPC3 core (%) [11]: 3.9%
EC50 [12]: 2.17 nM
Inhibition of the binding of indicated biotin-Mab to sGPC3 core (%) [13]: 2%

B3: M3B8 (antibody, V domains shown)
VH: QVTLKESGPGILQPSQTLSLTCSFSGFSLSTYGMGVGWIRQPSGMGLEWLANIWWYDAKYYNSDLKSRLTISKDTSNNQVFLKISSVDTSDTATYYCAQMGLAWFAYWGQGTLVTVSA
VL: DIKMTQSPSSMYASLGERVTITCKASQDINNYLSWFQQKPGKSPKTLIYRANRLVDGVPSRFSGSGSGQDYSLTISSLEYEDMGINYCLQCDEFPPWTFGGGTKLEIK
notes: as for B1
binding result [17]: binds
binding result [18]: binds
binding result [16]: binds

B4: M1E7 (antibody, human IgG1, kappa, V domains shown)
VH: EVQLQQSGPELVKPGASVKISCKASGYSFTGYYMHWVKQSPEKSLEWIGEINPSTGGTTYNQKFKAKATLTVDKSSSTAYMQLKSLTSEDSAVYYCARRGGLTGTSFFAYWGQGTLVTVSA
VL: DVVMTQTPLSLSVTIGQPASISCKSSQSLLYSNGKTYLNWLQQRPGQAPKHLMYQVSKLDPGIPDRFSGSGSETDFTLKISRVEAEDLGVYYCLQSTYYPLTFGAGTKLELKR
notes: Mouse monoclonal from hybridoma; also called M1E07
FACS X-mode value of the histogram (full-length human GPC3 [1]): 16
FACS X-mode value of the histogram (full-length human GPC3 [2]): 28
Inhibition of the binding of indicated biotin-Mab to sGPC3 core (%) [3]: 14.3%
Inhibition of the binding of indicated biotin-Mab to sGPC3 core (%) [4]: 7.7%
FACS X-mode value of the histogram (full-length human GPC3 [5]): 5
binding result [15]: no binding
Kd (full-length human GPC3 [6]): 2.8 nM
koff (full-length human GPC3 [6]): 0.000427 s⁻¹
kon (full-length human GPC3 [6]): 150000 M⁻¹ s⁻¹
binding result [16]: no binding
Inhibition of the binding of indicated biotin-Mab to sGPC3 core (%) [7]: 38%
Inhibition of the binding of indicated biotin-Mab to sGPC3 core (%) [8]: 6.4%
Inhibition of the binding of indicated biotin-Mab to sGPC3 core (%) [9]: 9%
Inhibition of the binding of indicated biotin-Mab to sGPC3 core (%) [10]: 14.8%
Inhibition of the binding of indicated biotin-Mab to sGPC3 core (%) [11]: 83.9%
EC50 [12]: 0.96 nM
Inhibition of the binding of indicated biotin-Mab to sGPC3 core (%) [13]: 26%

B5: humanized GC33 H chain ver.k / L chain ver.a (antibody, V domains shown)
VH: QVQLVQSGAEVKKPGASVKVSCKASGYTFTDYEMHWVRQAPGQGLEWMGALDPKTGDTAYSQKFKGRVTLTADKSTSTAYMELSSLTSEDTAVYYCTRFYSYTYWGQGTLVTVSS
VL: DVVMTQSPLSLPVTPGEPASISCRSSQSLVHSNGNTYLHWYLQKPGQSPQLLIYKVSNRFSGVPDRFSGSGSGTDFTLKISRVEAEDVGVYYCSQNTHVPPTFGQGTKLEIK
notes: Parent of the N33 and G34 L chain variants
EC50 (read off the curve) [19]: ~0.02 µg/mL

Continued, values first:

EC50 (read off the curve) [20]: ~0.02 µg/mL
B6: modified humanized GC33 (H chain ver.k, L chain G34R) (antibody, human IgG1, V domains shown)
VH: B5 VH
VL: B5 VL with G34R
notes: COS7 supernatant; human IgG1/kappa

EC50 (read off the curve) [21]: ~0.02 µg/mL
B7: modified humanized GC33 (H chain ver.k, L chain G34I) (antibody, human IgG1, V domains shown)
VH: B5 VH
VL: B5 VL with G34I
notes: as for B6

EC50 (read off the curve) [21]: ~0.02 µg/mL
B8: modified humanized GC33 (H chain ver.k, L chain G34K) (antibody, human IgG1, V domains shown)
VH: B5 VH
VL: B5 VL with G34K
notes: as for B6
